# Data reported in patent US20220144922A1 (Adimab, published 2022).
# Legend:
# [1] = biological target: T1, postfusion RSV F ectodomain (F ΔFP), subtype A (respiratory syncytial virus subtype A, UniProt P03420 26-109; P03420 147-524); assay: BLI, IgG on sensor
# T1 construct: extracellular domain; also called Postfusion subtype A
# Experimental: (§1) IgG binding to DS-Cav1 and FA FP was determined by BLI measurements using a FortéBio Octet HTX instrument (Pall Life Sciences). […] Data was analyzed using the ForteBio Data Analysis Software 7. The data was fit to a 1:1 binding model to calculate an association and dissociation rate, and KD was calculated using the ratio kd/kₐ.
# [2] = biological target: T2, postfusion RSV F ectodomain, subtype B (respiratory syncytial virus subtype B); assay: BLI, IgG on sensor
# T2 construct: extracellular domain; also called Postfusion subtype B
# Experimental: as §1
# [3] = biological target: RSV F protein of subtype B strain 18537, on virus (respiratory syncytial virus subtype B …, UniProt P13843 26-574); assay: cell-based or functional assay
# [4] = biological target: RSV F protein of subtype A strain A2, on virus (respiratory syncytial virus subtype A …, UniProt P03420 26-574); assay: cell-based or functional assay
# [5] = biological target: T3, prefusion-stabilized RSV F ectodomain (DS-Cav1), subtype B (respiratory syncytial virus subtype B); assay: BLI, IgG on sensor
# T3 construct: extracellular domain; also called Prefusion subtype B
# Experimental: as §1
Binder,Kd [1],Kd [2],Neut IC50 (ug/ml) subtype B [3],Neut IC50 (ug/ml) subtype A [4],Kd [5],binding result [1]
"ADI-15573 (antibody, V domains shown, IgG; also called Antibody Number 143) VH: QVQLVQSGAEVKKPGASVKISCKTSGYTFTSSVISWVRQAPGQGLEWVGWITGHRSSTNYAQRLQGRVTMTTDTSTSTAYMELRSLRSDDTAVYYCARADGGSGSYYSAWGQGTLVTVSS VL: SYELTQPPSASVAPGKTARISCGGNNIGTKSVHWYQQKPGQAPVLVIYHDSHRPSGIPERFSGSNSGNTATLTISRVEAGDEADYYCQLWDSSSDSHVFGTGTKLTVL",0.198 nM,0.199 nM,1.67 µg/mL,6.25 µg/mL,,
"ADI-15628 (antibody, V domains shown, IgG) VH: QVQLVQSGGGVVQPGRSLRLSCAASGFTFSDFSMHWVRQAPGKGLEWVALISNDGSNKYYSDSLKGSFIISRDNSKNTLYLQLNSLGAEDTALYYCARDAVPHYDYVWGNFDYWGPGTLVTVSS VL: QPVLTQPASVSASPGQSITISCTGTSSDVGGYNYVSWYQQHPGKAPKLIVYEVSNRPSGVSNRFSGSKSGNTASLTISGLQADDEADYYCSSYTSFTPVVFGGGTKVTVL",2.47 nM,,0.034 µg/mL,0.014 µg/mL,0.659 nM,
"ADI-15652 (antibody, V domains shown, IgG) VH: EVQLLESGGGVVQPGRSLRLSCAASGFTFSDFSMHWVRQAPGKGLEWVALISNDGSNKYYSDSLKGSFIISRDNSKNTLYLQLNSLGAEDTALYYCARDAVPHYDYVWGNFDYWGQGTLVTVSS VL: QSVLTQPASVSASPGQSITISCTGTSSDVGGYNYVSWYQQHPGKAPKLIIYEVSNRPSGVSNRFSGSKSGNTASLTISGLQADDEADYYCSSYTSFTPVVFGGGTKLTVL",4.98 nM,,0.036 µg/mL,0.012 µg/mL,0.377 nM,
"ADI-15576 (antibody, V domains shown, IgG; also called Antibody Number 146) VH: QVQLVQSGAAVKKPGESLKISCKGFGYSFTKYWIGWVRQVPGKGLEWIGIISPTDSNTRYSPSFRGQVTMSADKSISAAYLQWSSLKASDTAMYYCARHSSPYSSGWYGDTYFFDSWGQGTLVTVSS VL: QPVLTQPPSASGTPGQRVTISCSGSNSNIGTNTVNWYQQLPGTAPKVLIHNNNERPSGVPDRFSGSKSGTSASLAISGLQSEDEADYYCAAWDDSLRGYVFGTGTKVTVL",0.237 nM,0.179 nM,9.86 µg/mL,6.08 µg/mL,,
"ADI-15578 (antibody, V domains shown, IgG) VH: QVQLVQSGGGLVQPGGSLRLSCVGSGFTFSTYSMNWVRQAPGKGLEWVSHISSSSVTMYYADFVKGRFTISRDNAKNSLYLQMTSLRAEDTAVYYCARDAGPVWSGYYDYGMDVWGQGTTVTVSS VL: ETTLTQSPATLSLSPGERATLSCRASQSVSSLLAWYQQKPGQAPRLLIFDASKRATGIPARFSGSGSGTDFTLTISSLEPEDFAVYYCQQRYNWPPLTFGGGTKVEIK",1.27 nM,1.54 nM,,,,
"ADI-15654 (antibody, V domains shown, IgG; also called Antibody Number 218) VH: QVQLVQSGAEVKRPGSSVKVSCKASGGTSSSYIISWVRQAPGQGLEWMGGIIPIPISGAPTYAQKFQGRANYAQKFEGRLTITADRLTSTAYMELSSLTSEDTAVYYCVRDERNGGYWGQGTLVTVSS VL: QSALTQPASVSGSPGQSITISCTGTSNDVGAYNHVSWYQQHPGKAPKLMIYDVTNRPSGVSNRFSGSKSGNTASLTIFGLQTDDEADYYCSSYTISSTLVFGGGTQLTVL",,,3.27 µg/mL,3.76 µg/mL,4.47 nM,no binding (tested: BLI response <0.05 nm)
"ADI-15603 (antibody, V domains shown, IgG) VH: QVQLVQSGGGLVQPGGSLRLSCAASGFTFGRHAMTWVRQAPGKGLEWVAGITATGDPTYYPDSVKGRFAVSRDNSRNTLYLQMDSLRVEDTALYYCARSWDDYGDLDWYFALWGRGTMVTVSS VL: EIVMTQSPAILSVSPGERATLSCRASQSVSSSLAWYQQKPGQAPRLLIYGASTRATGIPPRFSGSGSGTQFTLTISSLQSEDVAVYYCQQYSDWPPLTFGGGTKVEIK",,11.9 nM,0.273 µg/mL,0.795 µg/mL,6.97 nM,
"ADI-15606 (antibody, V domains shown, IgG) VH: EVQLLESGGGLVQPGGSLRLSCAASGFTFRRYAMTWVRQAPGKGLEWVAAITATGDTTYYPDSVKGRFAVSRDNSRNTLYLQMDSLRAEDTALYYCAKSWDDYGDLDWYFALWGRGTLVTVSS VL: DIVMTQSPAILSVSPGERATLSCRASQSVSSSLAWYQQKPGQAPRLLIYGASTRATGIPPRFSGSGSGTQFTLTISSLQSEDFAVYYCQQYSDWPPLTFGGGTKVEIK",,5.89 nM,0.802 µg/mL,> 10 µg/mL,5.75 nM,
"ADI-15617 (antibody, V domains shown, IgG; also called Antibody Number 182) VH: EVQLVESGGGLVQPGGSLRISCAASGFSISSHAVSWVRQAPGKGLEWVSVISGSGGDTHSVVQGRGSGTYYADSVKGRFTISRDNVRNTVYLQMNSLRVEDTAVYYCAKDDPTLFWSGSGYYGMDVWGQGTTVTVSS VL: DIRVTQSPSSLSASVGDRVTITCQASQGISDSLNWYQQKPGKAPKLLIYGASKLEPGVSSRFSGRGSGRDFTFTISSLQPEDIGTYYCQQYDNLPLTFGPGTKLEIK",,,0.038 µg/mL,0.022 µg/mL,0.71 nM,no binding (tested: BLI response <0.05 nm)
"ADI-15653 (antibody, V domains shown, IgG) VH: QVQLVQSGAEVKKPGSSVKVSCKSSGGTFSNYIISWVRQAPGQGLEWMGGIVPLSGTTDYAQKFQGRVTITADKSTTTAYMELRTLRPEDTAVYYCARGSGGSNAYFDPWGQGTLVTVSS VL: QSVVTQPPSVSVAPGKTAKITCGGNNIGSKSVYWYQQKPGQAPVLVMYYDTYRPSGIPERFSGSNSGNSATLTISRVDAGDEADYYCQVWDSRSDHPYVFGSGTKLTVL",0.312 nM,0.39 nM,> 10 µg/mL,> 10 µg/mL,,
"ADI-15632 (antibody, V domains shown, IgG; also called Antibody Number 197) VH: QVQLVQSGGGLVQPGRSLRLSCTASGFSFSDYGVTWVRQAPGKGLEWIGFVRTKGYGGTTEYAASVRGRFTISRDDSKSVAYLQLNSLKVEDTAVYYCSGASRGFWSGPTYYYFGMDVWGHGTTVTVSS VL: EIVLTQSPLSLAVTPGEPASISCRSSQSLLHGNGYNYLDWYLQKPGQSPQLLIFWGSYRASGAPDRFSASGSGSEFTLKIRRVEAEDVGVYYCMQPLQTTFGQGTKVDIK",2.25 nM,,5.72 µg/mL,1.42 µg/mL,29.4 nM,
"ADI-15612 (antibody, V domains shown, IgG) VH: EVQLLESGGDLVQPGGSLRLSCAASGFPFSSHSMNWVRQAPGKGLEWISYISGGSDTIQYADSVKGRFTISRDNVKNSLYLQMNSLRAEDTAVYYCARDQYIWNYVEPLDYWGQGTLVTVSS VL: DIQMTQSPSSLSASVGDRVTITCRASQDISYYLGWYQQKAGKAPKLLIYAVSNLQTGVPSRFSGSGSGTDFTLTISSLQPEDFATYYCLQDHTCPWTFGQGTKVEIK",0.416 nM,0.353 nM,0.164 µg/mL,0.053 µg/mL,0.157 nM,
"ADI-15005 (antibody, V domains shown, IgG; also called Antibody Number 124) VH: QVQLVESGPALVKPTQTLTLTCSFSGFSLTTRRMCVSWIRQTPGKALEWLARIDWDDDKDYSTSLKTRLTISKDTSKNQVVLTMTNMDPVDTATYYCARTHIYDSSGYYLYYFDYWGQGTLVTVSS VL: DIVLTQSPSSLSASIGDRVTITCRASQTIASYLNWYQQKPGKAPELLIYAATNLQSGVPSRFSGSGSGTDFTLTISSLRPEDFASYYCQQSYSSPWTFGQGTKVDIK",0.237 nM,0.253 nM,2.53 µg/mL,2.16 µg/mL,1.4 nM,
"ADI-15644 (antibody, V domains shown, IgG) VH: QVQLVQSGAEVKKPGSSVKVSCRTSGGTFSSFSISWVRQAPGQGLEWMGGIIPIFGTANYAKKFQGRVTITADESTDTAYMELRSLRSEDTAVYYCARDSPKISATEYYFDYWGQGTLVTVSS VL: DIQVTQSPSTLSASVGDRVTITCRASQSFTSWLAWYQQKPGKAPKLLIYKASTLDSGVPSRFSGSGSGTEFTLTINGLQPDDFATYYCQHYDSYSGTFGQGTRLEIK",0.301 nM,0.194 nM,> 10 µg/mL,> 10 µg/mL,,
"ADI-15666 (antibody, V domains shown, IgG; also called Antibody Number 230) VH: QVQLQQWGAGLLKPSETLSLTCGVSDGSFSAYYWNWIRQSPGKGLEWIGETNPSENTNYSPSLKNRVTISADRSANQFSLRLRSVTAADTGVYYCARGRGYYGSTTDYRGLHWFDPWGQGTLVTVSS VL: ETTLTQSPVTLSVSPGERATLSCRASQSVSFNLAWYQQKPGQAPRLLIYGASTRVTNLPLRFSGSGSGTEFTLTISSLQSEDFAVYYCQQYNNWPRTFGQGTKLEIK",0.499 nM,0.546 nM,> 10 µg/mL,1.41 µg/mL,,
"ADI-15663 (antibody, V domains shown, IgG) VH: QVQLVQSGGGLVKPGGSLRLSCAASGFTFSSYTMNWVRQAPGKGLEWVSSITGGSSFTNYADSLEGRFTISRDNAKSSLFLQMNSLRVEDTAVYYCARDQPGTIFGVVQDYWGQGTLVTVSS VL: QSVLTQPPSVSGAPGQRVTISCTGGSSNIGAGYDVHWYQQLPGTAPKLLIYGNSNRPSGVPDRFSGSKSGTSASLAITGLQAEDEADYYCQSYDSRLSVVFGGGTKVTVL",2.32 nM,,0.019 µg/mL,0.003 µg/mL,0.287 nM,
"ADI-15604 (antibody, V domains shown, IgG; also called Antibody Number 170) VH: EVQLLESGGGLVKPGGSLRLSCGASGFKFSDYYMSWIRQAPGKGLEWVSHISSSNSYINYADSVKGRFTISRDNARNSLSLQMNSLRAEDTAVYYCARFPLYCSRSSCSHYVDYWGQGTLVTVSS VL: QSVLTQPPSVSGAPGQRVTISCTGSGSNIGAGYDVHWYQQLPGTAPKLLIYDNNNRPSGVPDRFSGSKSGTSASLAITGLQVEDEADYYCQSYDRSLSVVFGGGTKVTVL",,1.77 nM,0.082 µg/mL,0.081 µg/mL,0.46 nM,
